Test results reported in doi:10.1101/2024.07.18.604210.

Experiments:
[1] = target: C-terminal domain of SepF from M. tuberculosis (tbSepF-CTD, residues 146-241) (M. tuberculosis); test: ITC
[2] = target: C-terminal domain of SepF from M. tuberculosis (tbSepF-CTD, residues 146-241) (M. tuberculosis); test: AUC
[3] = target: C-terminal domain of SepF from M. tuberculosis (tbSepF-CTD, residues 146-241) (M. tuberculosis); test: SAXS

Sequence of C-terminal domain of SepF from M. tuberculosis (tbSepF-CTD, residues 146-241) (M. tuberculosis) (A1KKJ0 123-218 limits assumed): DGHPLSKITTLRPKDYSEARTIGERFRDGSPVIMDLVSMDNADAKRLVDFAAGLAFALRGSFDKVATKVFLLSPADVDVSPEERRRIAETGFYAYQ

chemically synthesized 18-residue peptide from the C-terminal region of tbFtsZ
Kd [1]: 19.7 µM
stoichiometry N [1]: 1

C-terminal domain of SepF from M. tuberculosis (tbSepF-CTD, residues 146-241) (domain or fragment)
stoichiometry N [2]: 2
stoichiometry N [3]: 2
